Test results taken from patent US20230220038A1, “BRI2 BRICHOS DOMAIN FOR DELIVERY OF PROTEINS INTO CNS NEURONS” (ALPHABETA AB, priority 2021, published 2023).

Legend:
[1] = system: hippocampal slice preparations; assay: Aβ42-induced neurotoxicity in hippocampal slice preparations
Aβ42 = Aβ42 (Homo sapiens, UniProt P05067); assay: Aβ42 oligomer generation; assay type: biochemical
[2] = system: App^NL-G-F and App^NL-F mice; conditions: mouse, in vivo, iv
Protocol: After the end of 10-12 weeks of treatment, Bri2 BRICHOS amounts in the CNS were analysed.
Representative sections (A,D) were double stained with anti-Bri2 BRICHOS antibody (red/pink color) and 82E1 anti-Aβ antibody (green color) counterstained with hematoxylin Mayer (blue color) in rh Bri2 BRICHOS R221E or PBS treated App^NL-G-F and App^NL-F mice. Histograms represents mean intensity of Bri2 BRICHOS in hippocampus (B,E) and cortex (C,F) of App^NL-G-F (B,C) and App^NL-F (E,F) mice. Data are shown as mean±SEM (n=3-4 mice/group, 4 histological sections from each mouse analyzed). Unpaired parametric two-tailed t-test was used to calculate p-values. Scale bars represents 400 μm (upper four panels in A and D) and 100 μm (lower two panels in A and D). * p<0.05, ** p<0.01, *** p<0.001, **** p<0.0001.

mice = conditions: mouse, in vivo
mouse primary neurons = assay: Uptake into primary neurons in culture, fluorescence microscopy; assay type: cell-based; conditions: low nanomolar concentrations in culture medium, 24-48 h
Protocol: The data in FIG. 11A indicate that the fusion protein rh NT-Bri2 BRICHOS is internalized in CNS cells and appears in intracellular vesicles. We studied the intracellular localization in more detail, using primary mouse neurons in culture and the recombinant fusion protein mCherry-Bri2 BRICHOS. Recombinant mCherry-Bri2 BRICHOS was added to the culture medium at low nanomolar concentrations, and after 24-48 h the neurons were immobilized and visualized under a fluorescence microscope.

Aβ42, sequence (P05067 672-713 limits assumed): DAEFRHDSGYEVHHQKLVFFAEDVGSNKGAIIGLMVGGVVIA

Substance	effect on Aβ42-induced neurotoxicity [1]	effect on Aβ42 oligomer generation (Aβ42)	overall Bri2 BRICHOS staining (mean intensity, hippocampus and cortex) versus PBS [2]	BBB passage (mice)	uptake into primary neurons (mouse primary neurons)
Bri2 BRICHOS R221E monomers: rh Bri2 BRICHOS mutated R221E so that the monomer is stabilised (SEQ ID NO: 13)	alleviates Aβ42-induced neurotoxicity	selectively reduces Aβ42 oligomer generation	significant increase	passes the BBB in mice and shows a trend towards higher passage than the wildtype protein	
mCherry: control: ca 30 kDa fluorescent protein derived from sea anemones [reference compound]					not taken up to any detectable level
